Measurements reported in patent US20220402990.

Key:
[1] = tested on: Activatable cytokine construct IFN-α-2b 1490DNI-hIgG4
[2] = tested on: Activatable cytokine construct IFN-α2b-1204DNIdl-hIgG4
[3] = tested on: Activatable cytokine construct ProC440 (N IFNα2b 0 1204DNIdL 0AA Fc)
[4] = tested on: IFN-α2b-1204DNIdl-hIgG4 with five amino acid residues added to the linker

With “recombinant human urokinase-type plasminogen activator (uPA)” the “protease cleavage, gel electrophoresis” value [1] was “The results suggest that the proteases were effective at cleaving the cleavable moieties in the activatable cytokine constructs”, the “protease cleavage, gel electrophoresis” value [2] was “The results suggest that the proteases were effective at cleaving the cleavable moieties in the activatable cytokine constructs” and the “protease cleavage, mass spectrometry” value [3] was “Cleavage with uPa at the expected site in the CM was confirmed by Mass spectrometry analysis”. For the same substance, the “protease cleavage, gel electrophoresis” value [4] was “The results suggest that the proteases were effective at cleaving the cleavable moieties in the activatable cytokine constructs”.
